Test results taken from the DeepSol protein solubility set.

Assay: soluble on expression in E. coli; label from the status in PepcDB or PDB records
With “MAHHHHHHMDTEAIKETAIREVCELSKTLKGTPFAITQRWKHIEALISTFERLLRRLELINLLCCEDEDSVSILKLYTQSQIASLEVLMKALMERGPNAAAFAAYAAGRLDEFVAVFTQSVGKTPRTNACVIADSGMRRWDQAAANGCEHNVVGNAAQNFLDLEVLLKTTLLTRGNQKGESKQCPLTKSDLSGYATVDDAPDRIKWAGGLLTVHKMYGWKEDGWSTNGRNVEFIKEAAEQFKEIKKVLEKQLPNGLDSIDALNAFLKREEPDAMMKDAIKTHQGWEEEKDDKTIIEKIKEIFGIGEPCAKIEFIETLIRTNVSARESGCTKQIDLFQLTTRQMEEVKERRLDQLRKTKTEAENYPRDMAKLSALKTNTNTKQGEYGECQFLCKRYKNAKAENEATDAAPNSPAAARKCRGKTENDCKDECKWDGNVCKNSDETSDYSRVCYSPLFPVLLLSLF” the “soluble on expression in E. coli” value was “not soluble”. In the case of “ITFEIAGDKLLMTLVPERLRGETASFDIEANGKVYVERGRRITARHIKALEKDNISQVVVPSEYILGKVASKDYVDLESGEIICPANGEISLETLAKLAQAG”, the “soluble on expression in E. coli” value is reported as “not soluble”. In the case of “MSYNNSYDVIILAGGLSKRFGADKCCFEVNSKTMLDRLLEQFDNPIVVSRSPRRIKKGILVIEKGEYEGPVKGVREGLKYVRRDRVFITGCDFPFLIKNLVDYVCSKPYDIVIPFDHRPQPLLACYSTELLNKNIDKINGLVELIELSSSVYFIGTEELLKIDPFLYSLININSIIDLIYRPIRIKTKSNFILRLEHHHHHH”, the “soluble on expression in E. coli” value is reported as “not soluble”. In the case of “MARASSTKARKQRHDPLLKDLDAAQGTLKKINKKKLAQNDAANHDAANEEDGYIDSKASRKILQLAKEQQDEIEGEELAESERNKQFEARFTTMSYDDEDEDEDEDEEAFGEDISDFEPEGDYKEEEEIVEIDEEDAAMFEQYFKKSDDFNSLSGSYNLADKIMASIREKESQVEDMQDDEPLANEQNTSRGNISSGLKSGEGVALPEKVIKAYTTVGSILKTWTHGKLPKLFKVIPSLRNWQDVIYVTNPEEWSPHVVYEATKLFVSNLTAKESQKFINLILLERFRDNIETSEDHSLNYHIYRAVKKSLYKPSAFFKGFLFPLVETGCNVREATIAGSVLAKVSVPALHSSAALSYLLRLPFSPPTTVFIKILLDKKYALPYQTVDDCVYYFMRFRILDDGSNGEDATRVLPVIWHKAFLTFAQRYKNDITQDQRDFLLETVRQRGHKDIGPEIRRELLAGASREFVDPQEANDDLMIDVN”, the “soluble on expression in E. coli” value is reported as “soluble”. With “MSLRRFKFQYKETIVTILTENEEFYKTAVKAILEARSEIEDYILHNPDFFTSYEPIECSGGEIINRMCNAAKIAGVGPMAAVAGTIAAYAVEKMIDAGAKLAVVDNGGDIVIHSDRELLVGIYPSKLAFKVPPVDYLAICTSSGKIGHSVSFGKADAATVVARDASVADALATALGNLIGDFGKKELEKTVSEFYGKYSDFVEGILVVKDELVALAGNLPSLAFAESKEDLITKGEGHHHHHH” the “soluble on expression in E. coli” value was “soluble”. For “MAPENHDGEKHFAEIVKDFGETSMNDNGLDTGEQAKAFAWGKVRDALSQQVNQHVESWLSPWGNASVDVKVDNEGHFTGSRGSWFVPLQDNDRYLTWSQLGLTQQDNGLVSNVGVGQRWARGNWLVGYNTFYDNLQDENLQRAGFGAEAWGEYLRLSANFYQPFAAWHEQTATQEQRMARGYDLTARMRMPFYQHLNTSVSLEQYFGDRVDLFNSGTGYHNPVALSLGLNYTPVPLVTVTAQHKQGESGENQNNLGLNLNYRFGVPLKKQLSAGEVAESQSLRGSRYDNPQRNNLPTLEYRQRKTLTVFLATPPWDLKPGETVPLKLQIRSRYGIRQLIWQGDTQILSLTPGAQANSAEGWTLIMPDWQNGEGASNHWRLSVVVEDNQGQRVSSNEITLTLVEPFDALSNDELRWEP”, the “soluble on expression in E. coli” value was “not soluble”. For “MINNSFWQGKRVFVTGHTGFKGGWLSLWLQTMGATVKGYSLTAPTVPSLFETARVADGMQSEIGDIRDQNKLLESIREFQPEIVFHMAAQPLVRLSYSEPVETYSTNVMGTVYLLEAIRHVGGVKAVVNITSDKCYDNKEWIWGYRENEAMGGYDPYSNSKGCAELVTSSYRNSFFNPANYGQHGTAVATVRAGNVIGGGDWALDRIVPDILRAFEQSQPVIIRNPHAIRPWQHVLEPLSGYLLLAQKLYTDGAEYAEGWNFGPNDADATPVKNIVEQMVKYWGEGASWQLDGNAHPHEAHYLKLDCSKAKMQLGWHPRWNLNTTLEYIVGWHKNWLSGTDMHEYSITEINNYMNTK”, the “soluble on expression in E. coli” value was “soluble”.
